Assay results as given in PMC5714204.

How the values were obtained:
Assay in all cases: fluorescence polarization
RNase R Δ3H = target: T1, RNase R Δ3H (Escherichia coli BL21(DE3), UniProt P21499 1-813, del487-545)
T1 sequence: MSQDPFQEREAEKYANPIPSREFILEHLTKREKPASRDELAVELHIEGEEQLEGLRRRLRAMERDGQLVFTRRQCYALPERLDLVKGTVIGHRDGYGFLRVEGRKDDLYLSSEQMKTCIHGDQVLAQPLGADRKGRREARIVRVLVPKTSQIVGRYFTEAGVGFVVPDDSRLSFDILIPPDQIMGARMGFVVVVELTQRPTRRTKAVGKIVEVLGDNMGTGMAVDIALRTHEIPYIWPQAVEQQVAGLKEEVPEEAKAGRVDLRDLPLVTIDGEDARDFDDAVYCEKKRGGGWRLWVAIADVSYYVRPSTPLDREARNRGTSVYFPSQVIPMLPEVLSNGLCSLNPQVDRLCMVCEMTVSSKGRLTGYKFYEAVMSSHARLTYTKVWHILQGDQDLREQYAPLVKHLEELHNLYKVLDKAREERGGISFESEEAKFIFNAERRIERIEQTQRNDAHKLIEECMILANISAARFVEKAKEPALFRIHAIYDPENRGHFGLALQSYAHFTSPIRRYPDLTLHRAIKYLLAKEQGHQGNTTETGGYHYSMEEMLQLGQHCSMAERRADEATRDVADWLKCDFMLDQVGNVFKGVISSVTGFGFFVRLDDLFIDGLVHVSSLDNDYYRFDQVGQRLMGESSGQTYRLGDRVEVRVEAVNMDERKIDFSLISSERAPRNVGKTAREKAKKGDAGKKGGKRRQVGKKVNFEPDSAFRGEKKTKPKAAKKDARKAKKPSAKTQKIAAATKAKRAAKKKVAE

RNase R ΔHTH-K = target: T2, RNase R ΔHTH-K (Escherichia coli BL21(DE3), UniProt P21499 87-725)
T2 sequence: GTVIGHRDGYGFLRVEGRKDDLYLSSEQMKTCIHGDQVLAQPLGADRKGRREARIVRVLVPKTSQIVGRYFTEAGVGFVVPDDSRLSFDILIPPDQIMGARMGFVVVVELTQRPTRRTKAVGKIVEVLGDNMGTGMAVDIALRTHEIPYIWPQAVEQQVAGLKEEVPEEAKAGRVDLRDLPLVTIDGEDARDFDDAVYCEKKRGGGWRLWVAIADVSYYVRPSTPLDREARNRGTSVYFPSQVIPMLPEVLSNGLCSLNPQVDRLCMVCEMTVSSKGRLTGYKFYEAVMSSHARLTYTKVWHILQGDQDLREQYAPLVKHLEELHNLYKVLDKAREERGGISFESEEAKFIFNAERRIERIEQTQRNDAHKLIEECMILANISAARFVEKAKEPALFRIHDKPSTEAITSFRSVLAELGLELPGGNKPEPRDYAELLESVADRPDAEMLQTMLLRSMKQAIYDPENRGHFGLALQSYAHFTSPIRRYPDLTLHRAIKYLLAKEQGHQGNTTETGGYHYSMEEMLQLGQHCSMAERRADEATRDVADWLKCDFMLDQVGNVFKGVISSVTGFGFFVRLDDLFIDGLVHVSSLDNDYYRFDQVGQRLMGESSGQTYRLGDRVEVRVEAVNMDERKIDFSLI

RNase R 1H = target: T3, RNase R 1H (Escherichia coli BL21(DE3), UniProt P21499 1-523+=AQPTGFLDSRIRRFQS+545-813, internal_change)
T3 sequence: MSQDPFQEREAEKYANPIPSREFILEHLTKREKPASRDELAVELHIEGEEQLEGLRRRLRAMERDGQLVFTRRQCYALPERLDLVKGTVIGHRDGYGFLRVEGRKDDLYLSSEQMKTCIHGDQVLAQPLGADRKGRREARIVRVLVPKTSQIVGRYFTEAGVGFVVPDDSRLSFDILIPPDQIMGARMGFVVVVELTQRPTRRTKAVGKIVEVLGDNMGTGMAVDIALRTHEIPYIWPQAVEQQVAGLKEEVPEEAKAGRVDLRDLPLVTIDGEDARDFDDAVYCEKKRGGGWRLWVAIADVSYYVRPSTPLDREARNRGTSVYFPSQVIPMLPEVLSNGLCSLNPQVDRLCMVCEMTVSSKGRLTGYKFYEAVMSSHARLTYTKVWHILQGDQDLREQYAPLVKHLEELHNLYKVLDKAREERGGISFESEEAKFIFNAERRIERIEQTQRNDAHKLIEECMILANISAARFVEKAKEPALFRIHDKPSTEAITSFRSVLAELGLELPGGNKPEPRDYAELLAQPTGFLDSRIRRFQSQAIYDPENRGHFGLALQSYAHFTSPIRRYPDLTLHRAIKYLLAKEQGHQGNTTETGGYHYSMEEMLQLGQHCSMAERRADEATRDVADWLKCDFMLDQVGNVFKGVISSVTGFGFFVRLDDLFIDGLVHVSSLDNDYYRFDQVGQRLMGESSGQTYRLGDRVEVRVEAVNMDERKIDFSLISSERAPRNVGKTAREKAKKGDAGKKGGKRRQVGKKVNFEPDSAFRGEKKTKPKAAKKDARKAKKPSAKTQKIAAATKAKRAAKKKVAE

RNase R (full-length) = target: T4, RNase R (full-length) (Escherichia coli BL21(DE3), UniProt P21499 1-813)
T4 sequence: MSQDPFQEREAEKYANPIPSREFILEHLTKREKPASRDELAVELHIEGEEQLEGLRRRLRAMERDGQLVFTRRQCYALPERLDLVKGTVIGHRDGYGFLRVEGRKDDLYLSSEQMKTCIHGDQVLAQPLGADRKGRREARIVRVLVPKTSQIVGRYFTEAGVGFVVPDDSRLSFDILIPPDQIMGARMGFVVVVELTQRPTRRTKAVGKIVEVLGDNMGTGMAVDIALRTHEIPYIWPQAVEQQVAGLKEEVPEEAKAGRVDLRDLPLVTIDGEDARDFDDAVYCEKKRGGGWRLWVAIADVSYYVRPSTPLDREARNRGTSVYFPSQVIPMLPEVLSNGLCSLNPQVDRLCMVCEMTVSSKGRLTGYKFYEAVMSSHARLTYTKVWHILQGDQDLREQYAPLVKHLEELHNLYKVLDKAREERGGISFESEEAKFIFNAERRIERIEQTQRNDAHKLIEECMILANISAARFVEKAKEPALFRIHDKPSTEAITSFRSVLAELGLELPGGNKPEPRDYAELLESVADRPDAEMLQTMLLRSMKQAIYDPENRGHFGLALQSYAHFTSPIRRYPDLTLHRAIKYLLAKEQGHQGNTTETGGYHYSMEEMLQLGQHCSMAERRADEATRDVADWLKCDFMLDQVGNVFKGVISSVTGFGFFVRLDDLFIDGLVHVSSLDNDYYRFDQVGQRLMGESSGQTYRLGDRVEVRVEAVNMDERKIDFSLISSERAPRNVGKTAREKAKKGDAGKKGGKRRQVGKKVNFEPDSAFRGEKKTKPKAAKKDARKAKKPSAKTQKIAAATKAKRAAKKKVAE

With AAAAAAAAAAAAAAAAAAAAAAAAAAAAAA (ssRNA) [Cy3-poly(A)30 ssRNA] the Kd (RNase R Δ3H) was 23.8 ± 2.6 nM, the Kd (RNase R ΔHTH-K) was 8.6 ± 1 nM and the Kd (RNase R 1H) was 9.9 ± 1 nM. For the same binder, the Kd (RNase R (full-length)) was 11.2 ± 1.2 nM.
